Results reported in patent US20150151000A1 (INDIANA UNIVERSITY RESEARCH AND TECHNOLOGY, published 2015).

Key:
[1] = molecular target: CRMP2 (endogenous, rat brain synaptosomes, rat brain lysates and rat dorsal root ganglia lysates) (rat, UniProt P47942 1-572); assay: SPOTS peptide array overlaid with rat brain synaptosome fraction, anti-CRMP2 far-Western
[2] = molecular target: T1, CRMP2-His (recombinant collapsin response mediator protein 2, NT647-labeled); assay: microscale thermophoresis, NT647-labeled CRMP2 constant, peptide titrated 0 to 5 µM, Hill fit
T1 construct: Purified on Talon resin and labeled with NT647 for microscale thermophoresis; also called recombinant CRMP2; NT647-labeled CRMP2

Binder | binding result [1] | Kd [2]
YLEWIFKAEEVMLAE (15-mer from the first intracellular loop of CaV2.2; It was immobilised as a spot in the SPOTS array and used as a synthetic peptide in MST; also called L1 (CaV2.2); [388-402]; L1) [L1 peptide (CaV2.2[388-402])] | binds | 3120 nM
YMEWISKAEEVILAE (Immobilised 15-mer spot; also called L1 peptide of P/Q (CaV2.1)-type channel) [L1 (CaV2.1) peptide] | binds | 
NSSFPSIHCSSWSEE (also called Ct-Dis (CaV1.2 (L)); [2014-2028]; Ct-dis) [Ct-dis peptide (CaV1.2[2014-2028])] | binds | 640 nM

Continued, values first:

binding result [1] | Kd [2] | Binder
binds |  | YRAWIDKAEEVMLAE (Immobilised 15-mer spot; also called L1 peptide of R (CaV2.3)-type channel) [L1 (CaV2.3) peptide]
binds |  | YLDWITQAEDIDPEN (Immobilised 15-mer spot; also called L1 peptide of L (CaV1.2)-type channel) [L1 (CaV1.2) peptide]
